From ChEMBL document CHEMBL5579804, “Synthesis and kinetic evaluation of phosphomimetic inhibitors targeting type B ribose-5-phosphate isomerase from Mycobacterium tuberculosis” (Bioorg Med Chem Lett, 2024)

What was measured:
[1] = compound: O=P(O)(O)OC[C@H]1O[C@@H](O)[C@H](O)[C@@H]1O; assay: Competitive inhibition of Escherichia coli RPIB assessed as Km using D-ribose-5-phosphate as substrate
[2] = compound: O=P(O)(O)OC[C@H]1O[C@@H](O)[C@H](O)[C@@H]1O; assay: Competitive inhibition of Escherichia coli RPIB assessed as Km using D-ribose-5-phosphate as substrate by spectrophotometric analysis
[3] = compound: O=P(O)(O)OC[C@H]1O[C@@H](O)[C@H](O)[C@@H]1O; assay: Competitive inhibition of Escherichia coli RPIB assessed as Km using D-ribose-5-phosphate as substrate by ultraviolet absorbance based spectrophotometric analysis
[4] = compound: O=P(O)(O)OC[C@H]1O[C@@H](O)[C@H](O)[C@@H]1O; assay: Competitive inhibition of Mycobacterium tuberculosis RPIB assessed as Km using D-ribose-5-phosphate as substrate
[5] = compound: O=P(O)(O)OC[C@H]1O[C@@H](O)[C@H](O)[C@@H]1O; assay: Competitive inhibition of Mycobacterium tuberculosis RPIB assessed as Km using D-ribose-5-phosphate as substrate by spectrophotometric analysis
[6] = compound: O=P(O)(O)OC[C@H]1O[C@@H](O)[C@H](O)[C@@H]1O; assay: Competitive inhibition of Mycobacterium tuberculosis RPIB assessed as Km using D-ribose-5-phosphate as substrate by ultraviolet absorbance based spectrophotometric analysis
[7] = compound: O=P(O)(O)OC[C@H]1O[C@@H](O)[C@H](O)[C@@H]1O; assay: Competitive inhibition of Mycobacterium tuberculosis H37Rv RPIB extracted from Escherichia coli BL21 assessed as Km using D-ribose-5-phosphate as substrate incubated for 10 mins by ultraviolet absorbance based spectrophotometric analysis
[8] = compound: O=P(O)(O)OC[C@H]1O[C@@H](O)[C@H](O)[C@@H]1O; assay: Competitive inhibition of Spinacia oleracea RPIA assessed as Km using D-ribose-5-phosphate as substrate
[9] = compound: O=P(O)(O)OC[C@H]1O[C@@H](O)[C@H](O)[C@@H]1O; assay: Competitive inhibition of Spinacia oleracea RPIA assessed as Km using D-ribose-5-phosphate as substrate by ultraviolet absorbance based spectrophotometric analysis
[10] = compound: O=P(O)(O)OC[C@H]1O[C@@H](O)[C@H](O)[C@@H]1O; assay: Competitive inhibition of Spinacia oleracea RPIA assessed as Km using D-ribose-5-phosphate as substrate by Michaelis-Menten kinetics analysis

B1: Ribose-5-phosphate isomerase B (Escherichia coli (strain K12)), P37351 (protein)
chain: MKKIAFGCDHVGFILKHEIVAHLVERGVEVIDKGTWSSERTDYPHYASQVALAVAGGEVDGGILICGTGVGISIAANKFAGIRAVVCSEPYSAQLSRQHNDTNVLAFGSRVVGLELAKMIVDAWLGAQYEGGRHQQRVEAITAIEQRRN
- Km [1]: 1600 µM
- Km [2]: 1500 µM
- Km [3]: 1100 µM

B2: Ribose-5-phosphate isomerase B (Mycobacterium tuberculosis), P9WKD7 (protein)
chain: MSGMRVYLGADHAGYELKQRIIEHLKQTGHEPIDCGALRYDADDDYPAFCIAAATRTVADPGSLGIVLGGSGNGEQIAANKVPGARCALAWSVQTAALAREHNNAQLIGIGGRMHTVAEALAIVDAFVTTPWSKAQRHQRRIDILAEYERTHEAPPVPGAPA
- Km [4]: 2100 µM
- Km [5]: 3100 µM
- Km [6]: 1000 µM
- Km [7]: 3700 µM

B3: ribose-5-phosphate isomerase (Spinacia oleracea), Q8RU73 (protein)
chain: MASAAFSLLPSTSSTTFNRHATTKLLNLKFLHNHRNKPFFTTTIKSLSSPSPTPVLTQDDLKKLAAEKAVDSVKSGMVLGLGTGSTAAFAVSRIGELLSAGKLTNIVGIPTSKRTAEQAASLGIPLSVLDDHPRIDLAIDGADEVDPDLNLVKGRGGALLREKMVEAASDKFIVVVDDTKLVDGLGGSRLAMPVEVVQFCWKYNLKRLQEIFKELGCEAKLRMEGDSSPYVTDNSNYIVDLYFPTSIKDAEAAGREISALEGVVEHGLFLGMASEVIIAGKTGVSVKTK
- Km [8]: 3000 µM
- Km [9]: 3300 µM
- Km [10]: 7500 µM
